From paper PMC10706726

Target: cLUC-LcMYB111 (litchi)

- dual-luciferase reporter (LUC/REN): activation of proLcFLS-A when LcMYB111 was co-infiltrated with LcHY5 (untagged effectors): 18.8 fold
- dual-luciferase reporter (LUC/REN): activation of proLcFLS-B when LcMYB111 was co-infiltrated with LcHY5 (untagged effectors): 5.78 fold
Substance: LcHY5-nLUC (natural protein)
